Measurements as given in patent US20160362472A1 (published 2016).

B1: CAR 22-57 (scFv)
scFv: EVQLQQSGPGLVKPSQTLSLTCAISGDSVSNNNAAWNWIRQSPSRGLEWLGRTYHRSTWYNDYVGSVKSRITINPDTSKNQFSLQLNSVTPEDTAVYYCARETDYGDYGAFDIWGQGTTVTVSSGGGGSGGGGSGGGGSQSALTQPASVSGSPGQSITISCTGSRNDIGAYESVSWYQQHPGNAPKLIIHGVNNRPSGVFDRFSVSQSGNTASLTISGLQAEDEADYYCSSHTTTSTLYVFGTGTKVTVLG
notes: scFv domain of a CAR expressed on JNL cells; also called CD22-57
B2: CAR22-58 (scFv)
scFv: EVQLQQSGPGLVNPSQTLSITCAISGDSVSSNSAAWNWIRQSPSRGLEWLGRTFYRSKWYNDYAVSVKGRITISPDTSKNQFSLQLNSVTPEDTAVYYCAGGDYYYGLDVWGQGTTVTVSSGGGGSGGGGSGGGGSQSALTQPASVSGSPGQSITISCTGSSSDVGGYNSVSWYQQHPGKAPKLMIYEVINRPSGVSHRFSGSKSGNTASLTISGLQAEDEADYYCSSYTSSSTYVFGTGTKVTVLG
notes: scFv domain of a CAR expressed on JNL cells; also called CD22-58
B3: CAR22-62 (scFv)
scFv: EVQLQQSGPGLVKPSQTLSLTCAISGDSVLSNSDTWNWIRQSPSRGLEWLGRTYHRSTWYDDYASSVRGRVSINVDTSKNQYSLQLNAVTPEDTGVYYCARDRLQDGNSWSDAFDVWGQGTMVTVSSGGGGSGGGGSGGGGSQSALTQPASVSGSPGQSITISCTGTSSDVGGYNYVSWYQQHPGKAPKLMIYDVSNRPSGVSNRFSGSKSGNTASLTISGLQAEDEADYYCSSYTSSSTLYVFGTGTKVTVLG
notes: scFv domain of a CAR expressed on JNL cells; also called CD22-62
B4: CAR22-59 (scFv)
scFv: EVQLQQSGPGLVKPSQTLSLTCAISGDSVLSNSDTWNWIRQSPSRGLEWLGRTYHRSTWYDDYASSVRGRVSINVDTSKNQYSLQLNAVTPEDTGVYYCARDRLQDGNSWSDAFDVWGQGTMVTVSSGGGGSGGGGSGGGGSQSALTQPASVSGSPGQSITISCTGSSSDIGGFNYVSWYQQHAGEAPKLMIYEVTNRPSGVSDRFSGSKSDNTASLTISGLQAEDEADYYCSSYASGSPLYVFGTGTKVTVLG
notes: scFv domain of a CAR expressed on JNL cells; also called CD22-59
B5: CAR22-60 (scFv)
scFv: EVQLQQSGPGLVKPSQTLSLTCAISGDSVLSNSDTWNWIRQSPSRGLEWLGRTYHRSTWYDDYASSVRGRVSINVDTSKNQYSLQLNAVTPEDTGVYYCARDRLQDGNSWSDAFDVWGQGTMVTVSSGGGGSGGGGSGSGGSQSALTQPASVSGSPGQSITFSCTGTSSDIGGYNYVSWYQQHPGKAPKLMIYEVSNRPSGVSNRFSGTKSGNTASLTISGLQAEDEADYYCSSYTSSSTLYVFGTGTKLTVLG
notes: scFv domain of a CAR expressed on JNL cells; also called CD22-60
B6: CAR22-61 (scFv)
scFv: QVQLQESGPGLVKPSQTLSLTCAISGDSVLSNSDTWNWIRQSPSRGLEWLGRTYHRSTWYDDYASSVRGRVSINVDTSKNQYSLQLNAVTPEDTGVYYCARDRLQDGNSWSDAFDVWGQGTMVTVSSGGGGSGGGGSGSGGSQSALTQPASVSGSPGQSITISCTGTSSDVGGYNYVSWYQQHPGKAPKLMIYEVSNRPSGVSNRFSGSKSGNTASLTISGLQAEDEADYYCSSYTSSSTLYVFGTGTKVTVLG
notes: scFv domain of a CAR expressed on JNL cells; also called CD22-61
B7: CAR22-63 (scFv)
scFv: EVQLQQSGPGLVKPSQTLSLTCAISGDSVLSNSDTWNWIRQSPSRGLEWLGRTYHRSTWYDDYASSVRGRVSINVDTSKNQYSLQLNAVTPEDTGVYYCARDRLQDGNSWSDAFDVWGQGTMVTVSSGGGGSGGGGSGGGGSQSALTQPASVSGSPGQSITISCTGTSSDVGGYNYVSWYQQHPGKAPKLMIYEVSNRPSGVSNRFSGSKSGNTASLTISGLQAEDEADYYCSSYTSSSTLYIFGTGTKVTVLG
notes: scFv domain of a CAR expressed on JNL cells; also called CD22-63
B8: CAR22-12 (scFv)
scFv: EVQLQQSGPGLVKPSQTLSLTCAISGDSVLSNSDTWNWIRQSPSRGLEWLGRTYHRSTWYDDYASSVRGRVSINVDTSKNQYSLQLNAVTPEDTGVYYCARDRLQDGNSWSDAFDVWGQGTMVTVSSGGGGSGGGGSGGGGSQSALTQPASASGSPGQSVTISCTGTSSDVGGYNYVSWYQQHPGKAPKLMIYDVSNRPSGVSNRFSGSKSGNTASLTISGLQAEDEADYYCSSYTSSSTLYVFGTGTQLTVL
notes: scFv domain of a CAR on T cells or JNL cells; also called CD22 CAR clone 12; hCD22-12
B9: CAR22-53 (scFv)
scFv: EVQLQQSGPGLVKPSQTLSLTCAISGDSVSSNSAAWNWIRQSPSRGLEWLGRTYYRSKWYSDYAVSVKSRITINPDTSKNQFSLQLNSVTPEDTAVYYCARDPYDFWSGYPDAFDIWGQGTMVTVSSGGGGSGGGGSGGGGSQSALTQPASVSGSPGQSITISCTGTSSDVGGYNYVSWYQQHPGKAPKVIISEVNNRPSGVSHRFSGSKSGNTASLTISGLQAEDEADYFCSSYTSGRTLYVFGTGSKVTVLG
notes: scFv domain of a CAR on JNL cells or T cells; also called CD22-53; hCD22-53
B10: CAR123-3 (scFv, V domains shown)
VH: QVQLVQSGAEVKKPGASVKVSCKASGYIFTGYYIHWVRQAPGQGLEWMGWINPNSGGTNYAQKFQGRVTMTRDTSISTAYMELSGLRSDDPAVYYCARDMNILATVPFDIWGQGTLVTVSS
VL: DIQLTQSPSSLSASVGDRVTITCRASQSISSYLNWYQQKPGKAPKLLIYAASSLQSGVPSRFSGSGSGTDFTLTVNSLQPEDFATYYCQQGDSVPLTFGGGTKVEIK
B11: CAR123-4 (scFv, V domains shown)
VH: QVQLQQSGAEVKKSGASVKVSCKASGYTFTDYYMHWLRQAPGQGLEWMGWINPNSGDTNYAQKFQGRVTLTRDTSISTVYMELSRLRSDDTAVYYCARDMNILATVPFDIWGQGTMVTVSS
VL: DIQMTQSPSSLSASVGDRVTITCRASQSISSYLNWYQQKPGKAPKLLIYAASSLQSGVPSRFSGSGSGTDFTLTISSLQPEDFATYYCQQGDSVPLTFGGGTKVEIK
B12: CAR22-64 (scFv)
scFv: EVQLQQSGPGLVKPSQTLPLTCAISGDSVLSNSDTWNWIRQSPSRGLEWLGRTYHRSTWYDDYASSVRGRVSINVDTSKNQYSLQLNAVTPEDTGVYYCARVRLQDGNSWSDAFDVWGQGTMVTVSSGGGGSGGGGSGGGGPQSALTQPASASGSPGQSVTISCTGTSSDVGGYNYVSWYQQHPGKAPKLMIYDVSNRPSGVSNRFSGSKSGNTASLTISGLQAEDEADYYCSSYTSSSTLYVFGTGTQLTVL
notes: also called CD22-64
B13: CAR22-65 (scFv)
scFv: EVQLQQSGPGLVKPSQTLSLTCAISGDSMLSNSDTWNWIRQSPSRGLEWLGRTYHRSTWYDDYASSVRGRVSINVDTSKNQYSLQLNAVTPEDTGVYYCARVRLQDGNSWSDAFDVWGQGTMVTVSSGGGGSGGGGSGGGGSQSALTQPASASGSPGQSVTISCTGTSSDVGGYNYVSWYQQHPGKAPKLMIYDVSNRPSGVSNRFSGSKSGNTASLTISGLQAEDEADYYCSSYTSSSTLYVFGTGTQLTVL
notes: also called CD22-65

Target: T1, CD22-FL-Fc (UniProt P20273 20-687)
T1 construct: domain: full-length with all 7 external domains; also called CD22 full length-Fc; CD22 full-length with all 7 external domains; not shown: Fc part not described
Assay: NFAT-luciferase activation of CAR JNL cells on plates coated with CD22-FL-Fc, CD22-D567-Fc or CD22-D67
Experimental: (§1) Briefly the experiments were performed as follows. A lentiviral vector (pELPS) carrying a nucleic acid, encoding a CD22 CAR with a CD22-binding scFv domain was introduced by electroporation into a Jurkat T cell line modified to express luciferase under the control of an NFAT response element (JNL). The cells were cultured and allowed to express the CAR construct. The electroporated cells were applied to a plate coated with the target antigen (CD22). Detection of luciferase signal in the coated plate was indicative of binding activity of the CD22 CAR to its antigen, leading to activation of the T cells and expression of luciferase.
Three different target proteins (CD22-FL-Fc, CD22-D567-Fc, and CD22-D67) were used to coat the tissue culture plates; a negative control (Fc) was also included. A mesothelin binding CAR (Meso-G07) was used as a negative control. […] Domain mapping was performed on CD22 binding domains. Three different forms of antigens were used: CD22 full-length with all 7 external domains, Domain567 (in which domains 1-4 were deleted) and Domain67 (in which domains 1-5 were deleted).

| Binder | binding result |
| --- | --- |
| B1 | binds |
| B2 | binds |
| B3 | binds |
| B4 | binds |
| B5 | binds |
| B6 | binds |
| B7 | binds |
| B8 | binds |
| B9 | binds |

Target: CD123 on target cells (MOLM14, MOLM13, primary B-ALL blasts) (human), P26951
Assay: cell-based or functional assay

Sequence of CD123 on target cells (MOLM14, MOLM13, primary B-ALL blasts) (human), P26951 (P26951 19-378): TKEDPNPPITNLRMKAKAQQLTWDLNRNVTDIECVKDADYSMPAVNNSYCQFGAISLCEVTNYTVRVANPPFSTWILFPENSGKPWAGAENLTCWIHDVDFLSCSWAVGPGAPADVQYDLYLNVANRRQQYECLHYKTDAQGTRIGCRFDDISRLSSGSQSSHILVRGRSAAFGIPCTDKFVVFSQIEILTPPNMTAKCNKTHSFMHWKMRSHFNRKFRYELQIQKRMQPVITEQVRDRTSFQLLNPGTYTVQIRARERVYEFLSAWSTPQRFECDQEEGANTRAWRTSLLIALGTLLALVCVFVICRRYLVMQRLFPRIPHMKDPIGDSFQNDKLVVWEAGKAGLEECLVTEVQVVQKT

| Binder | CD107a degranulation, 2-hr in vitro assay |
| --- | --- |
| B10 | 80% |
| B11 | 80% |

Target: T1, CD22-FL-Fc
Assay: NFAT-luciferase activation of CAR JNL cells on plates coated with CD22 full length-Fc, CD22 D567-Fc or Fc only
Experimental: as §1
CAR constructs containing these scFvs were tested for activity in an NFAT assay as described above. […] The bars in the figure represent, from left to right, CD22 full length-Fc; CD22 D567-Fc; and an Fc only negative control used for coating of the plates.

| Binder | binding result |
| --- | --- |
| B12 | binds |
| B13 | binds |
